Data taken from PMC12886386.

Molecular target: His10-pA-Tn5 (His10-tagged protein A-Tn5 transposase fusion) (not stated | Escherichia coli)
Experiment: SEC; HiLoad 16/600 Superdex 200 pg after Ni-NTA; buffer C: 50 mM Tris-HCl pH 7.5, 800 mM NaCl, 0.2 mM EDTA, 2 mM DTT, 10% (v/v) glycerol; fractions checked by SDS-PAGE and 260 nm/280 nm ratio

His10-pA-Tn5 (His10-tagged protein A-Tn5 transposase fusion) (enzyme)
stoichiometry N: 2
